Columns and labels:
[1] = target: Hsp90Ec L493C (E. coli, UniProt P0A6Z3 1-624, L493C); assay: pull-down
[2] = target: Hsp90Ec K45C (E. coli, UniProt P0A6Z3 1-624, K45C); assay: pull-down
[3] = target: Hsp90Ec K71C (E. coli, UniProt P0A6Z3 1-624, K71C); assay: pull-down
[4] = target: Hsp90Ec K99C (E. coli, UniProt P0A6Z3 1-624, K99C); assay: pull-down
[5] = target: Hsp90Ec K103C (E. coli, UniProt P0A6Z3 1-624, K103C); assay: pull-down
[6] = target: T1, Hsp90Ec K199C (E. coli, UniProt P0A6Z3 1-624, K199C); assay: pull-down
[7] = target: Hsp90Ec K492C (E. coli, UniProt P0A6Z3 1-624, K492C); assay: pull-down
[8] = target: Hsp90Ec K502C (E. coli, UniProt P0A6Z3 1-624, K502C); assay: pull-down
[9] = target: T2, Hsp90Ec N347C (E. coli, UniProt P0A6Z3 1-624, N347C); assay: pull-down
[10] = target: Hsp90Ec K560C (E. coli, UniProt P0A6Z3 1-624, K560C); assay: pull-down
[11] = target: T3, Hsp90Ec N350C (E. coli, UniProt P0A6Z3 1-624, N350C); assay: pull-down
[12] = target: Hsp90Ec K354C (E. coli, UniProt P0A6Z3 1-624, K354C); assay: pull-down
[13] = target: Hsp90Ec Q358C (E. coli, UniProt P0A6Z3 1-624, Q358C); assay: pull-down
[14] = target: Hsp90Ec wild-type (E. coli, UniProt P0A6Z3 1-624); assay: BLI
[15] = target: T3, Hsp90Ec N350C; assay: cross-linking
[16] = target: T2, Hsp90Ec N347C; assay: cross-linking
[17] = target: T1, Hsp90Ec K199C; assay: cross-linking
[18] = target: T2, Hsp90Ec N347C; assay: cross-linking; remark: listed apart in the source

B1: biotin-labeled CbpA (natural protein, E. coli, UniProt P36659 1-306, looked up)
chain: MELKDYYAIMGVKPTDDLKTIKTAYRRLARKYHPDVSKEPDAEARFKEVAEAWEVLSDEQRRAEYDQMWQHRNDPQFNRQFHHGDGQSFNAEDFDDIFSSIFGQHARQSRQRPATRGHDIEIEVAVFLEETLTEHKRTISYNLPVYNAFGMIEQEIPKTLNVKIPAGVGNGQRIRLKGQGTPGENGGPNGDLWLVIHIAPHPLFDIVGQDLEIVVPVSPWEAALGAKVTVPTLKESILLTIPPGSQAGQRLRVKGKGLVSKKQTGDLYAVLKIVMPPKPDENTAALWQQLADAQSSFDPRKDWGKA
modifications: biotin label (site not stated)
binding result [1]: binds | binding result [2]: binds | binding result [3]: binds | binding result [4]: binds | binding result [5]: binds | binding result [6]: binds | binding result [7]: binds | binding result [8]: binds | binding result [9]: binds | binding result [10]: binds | binding result [11]: binds | binding result [12]: binds | binding result [13]: binds | Kd [14]: 11 ± 0.9 µM

B2: CbpA J-domain A44C (domain or fragment, E. coli, UniProt P36659 1-78, looked up)
chain: MELKDYYAIMGVKPTDDLKTIKTAYRRLARKYHPDVSKEPDAECRFKEVAEAWEVLSDEQRRAEYDQMWQHRNDPQFN
binding result [15]: binds | binding result [16]: binds

B3: wild type CbpA J-domain fragment (residues 1-78) (domain or fragment, E. coli, UniProt P36659 1-78, looked up)
chain: MELKDYYAIMGVKPTDDLKTIKTAYRRLARKYHPDVSKEPDAEARFKEVAEAWEVLSDEQRRAEYDQMWQHRNDPQFN
binding result [17]: binds | binding result [18]: binds

From publication PMC10527347 (Journal of molecular biology, 2023)
